Assays:
[1] = target: T1, ComZ (residues 31 to 554), Thermus thermophilus HB27 (Thermus thermophilus HB27, UniProt Q8KPZ1 31-554); assay: ITC; MicroCal PEAQ-ITC; 20 aliquots of 2 μl PilA2 (314 μM) titrated into 300 μl ComZ (33 μM), 25°C; fitted assuming a single binding site; conditions: both partners purified
T1 construct: Cloned into pET-22b (NcoI/XhoI); also called recombinant ComZ fragment; comZ-22b construct; source: E. coli T7 Express, purified (HisTrap HP, SEC); not shown: His6, C-terminal, kept
T1 sequence (looked up): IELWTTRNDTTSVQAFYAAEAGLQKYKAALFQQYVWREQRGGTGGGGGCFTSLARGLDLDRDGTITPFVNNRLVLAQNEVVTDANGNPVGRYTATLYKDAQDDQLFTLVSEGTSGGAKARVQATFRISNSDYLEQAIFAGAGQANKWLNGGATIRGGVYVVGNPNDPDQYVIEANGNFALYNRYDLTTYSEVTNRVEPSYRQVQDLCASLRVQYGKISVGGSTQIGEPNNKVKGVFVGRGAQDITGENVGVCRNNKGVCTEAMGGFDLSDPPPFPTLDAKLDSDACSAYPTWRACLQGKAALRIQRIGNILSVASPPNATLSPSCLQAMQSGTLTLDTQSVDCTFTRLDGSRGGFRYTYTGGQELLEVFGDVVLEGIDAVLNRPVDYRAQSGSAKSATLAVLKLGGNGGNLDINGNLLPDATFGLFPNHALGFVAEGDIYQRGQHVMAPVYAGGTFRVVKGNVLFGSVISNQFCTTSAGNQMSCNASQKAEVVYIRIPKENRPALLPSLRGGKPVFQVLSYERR

[2] = target: the molecule itself; assay: SEC; HiLoad 16/600 Superdex 200 PG, 1 ml/min, 25 mM Tris-HCl pH 8.0, 200 mM NaCl, 5% glycerol; proteins incubated together at 4°C for 30 min before the run; each protein also run alone; peaks checked by SDS-PAGE

Binder | Kd [1] | dH [1] | stoichiometry N [1] | binding result [2]
PilA2 soluble domain (residues 33 to 193), Thermus thermophilus HB27 (domain or fragment, UniProt Q72JC3 33-193, looked up, Synthetic gene (GeneArt), codon-optimised for E. coli, in pET-22b (BamHI/XhoI); also called recombinant PilA2; source: E. coli Lemo21(DE3), purified (StrepTrap HP, SEC); not shown: Strep-tag II, C-terminal, kept) RASAQARFATDAKAAAVQVLERRSAEVLKSEIVPALSPYKDAPLDPDNPSGNWRSFYFVDYYFSCPTRVAPSPKQRGGSVANLRPGLTCSGTETIFGIPVAWDIRGENGILGEGVVTVVVTATHPRGPKVTLGRRVTCYDVYPSPTQDQPAPCPPPGGGRP | 690 nM | 2.3 kcal/mol | 1.1 | –
PilA3 soluble domain (residues 33 to 233), Thermus thermophilus HB27 (domain or fragment, UniProt Q72JC2 33-233, looked up, Synthetic gene (GeneArt), codon-optimised for E. coli, in pET-22b (BamHI/XhoI); source: E. coli Lemo21(DE3), purified (StrepTrap HP, SEC); not shown: Strep-tag II, C-terminal, kept) ELARNTQARSELQDRVRMVMQVVTADLQMAGARYWNSGNQNQAFSLPLPPLSGSNMGPKDTLTLYYVTSLRDLASACRRVDYGFEGDTLRRSDVNATPSSGSDCTTPPPNSQPLAEGMLALDIQYQCSDGSRKDTPDCGTDAYPRSAKVTVAGYSLTSVTNPGPASLTTVTGKTLACPQGRACYALTQEVLMPNLKPLPTP | – | – | – | binds
